The experiment addresses T1, ADP-ribosyl cyclase 2 (BST1), human, cell-surface (human, UniProt Q10588 33-293).
T1 construct: Endogenous BST1 on A549, H226 and U937 cells and on blood cells of AML patients; also called CD157; Bone marrow stromal antigen 1
T1 sequence: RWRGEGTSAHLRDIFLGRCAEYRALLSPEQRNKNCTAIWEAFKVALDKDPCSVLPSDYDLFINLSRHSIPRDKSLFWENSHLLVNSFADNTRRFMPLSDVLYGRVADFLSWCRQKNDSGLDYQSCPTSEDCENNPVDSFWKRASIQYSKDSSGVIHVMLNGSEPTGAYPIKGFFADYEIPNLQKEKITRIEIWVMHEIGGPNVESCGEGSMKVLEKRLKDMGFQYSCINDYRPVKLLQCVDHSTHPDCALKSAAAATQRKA
The experiment is described as follows: flow cytometry on BST1-expressing A549 and H226 cells. The procedure: The specificity of antibodies against the BST1 selected in Example 6 was also tested by flow cytometry. To test the ability of the antibodies to bind to the cell surface BST1 protein, the antibodies were incubated with the BST1-expressing cells, H226 (human lung squamous carcinoma) and A549 (human lung adenocarinoma). Cells were washed in FACS buffer (DPBS, 2% FBS), centrifuged and resuspended in 100 μl of the diluted primary BST1 antibody (also diluted in FACS buffer). The antibody-A549 complex and antibody-H226 complex were incubated on ice for 60 min and then washed twice with FACS buffer as described above. The cell-antibody pellet was resuspended in 100 μl of the diluted secondary antibody (also diluted in FACS buffer) and incubated on ice for 60 min on ice. The pellet was washed as before and resuspended in 200 μl FACS buffer. The samples were loaded onto the BD FACScanto II flow sytometer and the data analyzed using the BD FACSdiva software. The binding of BST1_[…] and BST1_A2 to BST1 expressed on A549 and H226 cells were analysed using flow cytometry.
(In general: Flow cytometry measures light scatter and fluorescence of single cells or particles in a stream.)

B1: BST1_A1 anti-BST1 monoclonal antibody (Fab, V domains shown)
VH: QVKLQQSGAELVRPGSSVKISCKASGYAFSNSWINWVKQRPGQGLEWIGQIYPGDYDTNYNGKFKGKATLTADYSSSTAYMQLNSLTSEDSAVYFCARGGSIYYGNLGFFDVWGAGTTVTVSS
VL: EMVLTQSPAIMSTSLGERVTMTCTASSRVSSSYLHWYQQKPGSSPKLWIYSTSNLASGVPARFSGSGSGTSYSLTISSMEAEDAATYYCHQYHRSPYTFGGGTKLEIKR
For the molecule B1, the binding result is on record as “binds”.
